Measurements published in US20220228164A1, “ENGINEERED ANTIGEN PRESENTING CELLS” (Neogene Therapeutics B.V., priority 2021, published 2022).

Columns and labels:
[1] = test system: NY-ESO 5B8 TCR transduced Jurkat cells; assay: TMG-expressing BCL-6/BCL-xL B cells with or without CD40L, co-culture with TCR Jurkat cells, CD69 (Example 7); format: cell-based, human; conditions: BCL-6/BCL-xL immortalized B cells, two donors, 20 hours
Protocol: (§1) B cells from two healthy donors are isolated and immortalized by transduction with BCL-6/BCL-xL as described in Example 5 and 10 of this invention. In this Example, B cells are either transduced with BCL-6/BCL-xL alone or in combination with a CD40L transgene. After immortalization B cells are transduced with different TMG constructs encoding different numbers of 25mer polypeptides (1, 3, 12 or 40) and including LAMP1 signaling and transmembrane sequences. 96 hours post-transductions TMG-expressing B cells are enriched by antibiotic resistance selection as described in Examples 5 and 10. […]
(§2) TCR expressing Jurkat T cells specific for two NY-ESO-1 derived T cell epitopes (5B8 epitope SLLMWITQCFLPVF; SEQ ID NO: 3; MHC-class II restricted T cell epitope and 1G4 epitope SLLMWITQC; SEQ ID NO: 4; MHC-class I restricted T cell epitope) are generated as described in Examples 5 and 10. […] After co-culture, CD69 expression by TCR transduced Jurkat T cells is measured by flow cytometry.
(§3) FIG. 11A is Donor 1: NY-ESO 1G4 TCR transduced T cell reactivity towards TMG transduced BCL-6/BCL-XL immortalized B cells with or without CD40L. […] NY-ESO 1G4 TCR transduced Jurkat cells directed against one of the epitopes presented on Class I were then co-cultured with the B cells and reactivity was assessed by flowcytometry focusing on upregulation of CD69 on T cells. […]

[2] = test system: NY-ESO 1G4 TCR transduced Jurkat cells; assay: as above; format: cell-based, human; conditions: BCL-6/BCL-xL immortalized B cells, two donors, 20 hours
Protocol: as §1, §2, §3

B1: CD40L transgene: hCD40L transgene expressed in BCL-6/BCL-xL immortalized B cells (protein)
DNA: MIETYNQTSPRSAATGLPISMKIFMYLLTVFLITQMIGSALFAVYLHRRLDKIEDERNLHEDFVFMKTIQRCNTGERSLSLLNCEEIKSQFEGFVKDIMLNKEETKKENSFEMQKGDQNPQIAAHVISEASSKTTSVLQWAEKGYYTMSNNLVTLENGKQLTVKRQGLYYIYAQVTFCSNREASSQAPFIASLCLKSPGRFERILLRAANTHSSAKPCGQQSIHLGGVFELQPGASVFVNVTDPSQVSHGTGFTSFGLLKL
MHC-class II antigen presentation (CD69 expression by TCR transduced Jurkat T cells) [1]: can increase | MHC-class I antigen-presentation (CD69 expression by TCR transduced Jurkat T cells) [2]: can increase
